We go through 16 molecules from patent publication US20200377593A1 (Innovent, published 2020).

Substitutions are numbered along the chain they refer to.

The labels stand for the following.
T1: mouse CD47-Fc (mouse, UniProt Q61735 19-140, limits assumed)
T1 construct: not shown: Fc part; not described
T1 sequence (looked up): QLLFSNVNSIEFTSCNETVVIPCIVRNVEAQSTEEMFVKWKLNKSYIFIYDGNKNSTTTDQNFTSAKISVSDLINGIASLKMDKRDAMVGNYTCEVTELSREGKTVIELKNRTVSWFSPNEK

B1: ADI-29342 (antibody, human IgG1, kappa, V domains shown)
VH: QVQLQESGPGLVKPSETLSLTCTVSGGSIMHYYWSWIRQPPGKGLEWIGYIYYSGSTNYNPSLKSRVTISVDTSKNQFSLKLSSVTAADTAVYYCARGKTGSAAWGQGTLVTVSS
VL: DIQMTQSPSSVSASVGDRVTITCRASQGISRWLAWYQQKPGKAPKLLIYAASSLQSGVPSRFSGSGSGTDFTLTISSLQPEDFATYYCQQTVSFPITFGGGTKVEIKR
notes: Full-length IgG1 kappa expressed in yeast, purified by Protein A
B2: ADI-26655 (antibody, human IgG1, kappa, V domains shown)
VH: B1 VH with M30S, H31S, N58T, G98K, T100R, G101F, S102F, A103D, A104L, L110T
VL: not shown
notes: as for B1
B3: ADI-26660 (antibody, human IgG1, kappa, V domains shown)
VH: QVQLQESGPGLVKPSETLSLTCTVSGGSISSYYWSWIRQPPGKGLEWIGSIYYSGSTNYNPSLKSRVTISVDTSKNQFSLKLSSVTAADTAVYYCARKQKHFDIWGQGTMVTVSS
VL: B1 VL with R31S, T91V, V92N, S93H, F94H, I96W
notes: as for B1
B4: ADI-29338 (antibody, human IgG1, kappa, V domains shown)
VH: B3 VH with S50T, N58R, K98G, Q99K, K100S, H101A, I104P, M110L
VL: DIQMTQSPSSVSASVGDRVTITCRASQGISRWLAWYQQKPGKAPKLLIYAASSLQSGVPSRFSGSGSGTDFTLTISSLQPEDFATYYCQQADLHPPLTFGGGTKVEIKR
notes: as for B1
B5: ADI-29350 (antibody, human IgG1, kappa, V domains shown)
VH: B1 VH with M30E, S56F, N58E, G98K, T100R, G101F, S102F, A103D, A104L, L110T
VL: not shown
notes: as for B1
B6: ADI-29347 (antibody, human IgG1, kappa, V domains shown)
VH: B1 VH with M30A, H31N, I51T, Y53F
VL: B1 VL
notes: as for B1
B7: ADI-29345 (antibody, human IgG1, kappa, V domains shown)
VH: B1 VH with M30S, S56V, N58T, A103T
VL: B1 VL
notes: as for B1
B8: ADI-29337 Fab fragment (Fab, V domains shown)
VH: B1 VH with M30N, Y50A, N58R, T100S, G101A, S102F, A103D, A104P
VL: B4 VL
B9: ADI-26660 Fab fragment (Fab, V domains shown)
VH: B3 VH
VL: B1 VL with R31S, T91V, V92N, S93H, F94H, I96W
notes: also called ADI-26660 (Fab form)
B10: ADI-26655 Fab fragment (Fab, V domains shown)
VH: B3 VH with S50Y, N58T, Q99K, K100R, H101F, I104L, M110T
VL: not shown
notes: also called ADI-26655 (Fab form)
B11: ADI-29342 Fab fragment (Fab, V domains shown)
VH: B1 VH
VL: B1 VL
B12: ADI-29350 Fab fragment (Fab, V domains shown)
VH: B1 VH with M30E, S56F, N58E, G98K, T100R, G101F, S102F, A103D, A104L, L110T
VL: not shown
notes: also called ADI-29350 (Fab form)
B13: ADI-29345 Fab fragment (Fab, V domains shown)
VH: B1 VH with M30S, S56V, N58T, A103T
VL: B1 VL
B14: ADI-29347 Fab fragment (Fab, V domains shown)
VH: B1 VH with M30A, H31N, I51T, Y53F
VL: B1 VL
notes: also called ADI-29347 (Fab form)
B15: ADI-29337 (antibody, human IgG1, kappa, V domains shown)
VH: B1 VH with M30N, Y50A, N58R, T100S, G101A, S102F, A103D, A104P
VL: B4 VL
notes: as for B1
B16: Hu5F9 (antibody, V domains shown)
VH: QVQLVQSGAEVKKPGASVKVSCKASGYTFTNYNMHWVRQAPGQRLEWMGTIYPGNDDTSYNQKFKDRVTITADTSASTAYMELSSLRSEDTAVYYCARGGYRAMDYWGQGTLVTVSS
VL: DIVMTQSPLSLPVTPGEPASISCRSSQSIVYSNGNTYLGWYLQKPGQSPQLLIYKVSNRFSGVPDRFSGSGSGTDFTLKISRVEAEDVGVYYCFQGSHVPYTFGQGTKLEIKR

The first assay concerns the target T2, human CD47 overexpressed on CHO cells (human, UniProt Q08722 19-292).
T2 construct: CHO cells transfected with pCHO1.0 carrying human CD47 cDNA (Sino Biological); also called hCD47; CHO-hCD47 cells
The experiment in a line: flow cytometry on CHO-hCD47 cells, PE anti-human IgG, MFI curve. On the technique in general: Flow cytometry measures light scatter and fluorescence of single cells or particles in a stream.
In general, EC50 refers to the concentration at which the effect is half-maximal. As for B1, the EC50 amounted to 2.74 nM.
Still for that read-out and setting: then B2, with 7.65 nM; and B3, with 5.74 nM.
With B4, a half-maximal response (EC50) required 1.57 nM.
Still for that read-out and setting: to B5 belongs 4.42 nM.
Consider B6, for which the EC50 worked out at 1.81 nM.
Same read-out and setting: to B7 belongs 1.5 nM.

A further assay has as its target T1, mouse CD47-Fc. The experiment in a line: BLI (ForteBio), antibody on AHQ tip, mouse CD47-Fc in solution, bivalent. On the technique in general: In BLI a coated tip is dipped into the sample, and binding shifts an interference pattern.
With B1, the binding result is on record as “no binding (tested: 100 nM)”.
Consider B2, for which the binding result is “no binding (tested: 100 nM)”.
The same measure, in the same setting: to B3 belongs “no binding (tested: 100 nM)”; to B5, “no binding (tested: 100 nM)”.
Same read-out and setting: to B6 belongs “no binding (tested: 100 nM)”; to B7, “no binding (tested: 100 nM)”.

For a further assay, the target named is T3, human CD47-Fc (human, UniProt Q08722 19-139).
T3 construct: also called hCD47; not shown: Fc part
Nature of the assay: BLI (ForteBio), human CD47-Fc on AHQ tip, Fab in solution 100 nM, monovalent.
B8 had a Kd of 2.2 nM.
Consider B9, for which the Kd was found to be 130 nM.
B10 displayed a Kd of 46.3 nM.
The molecule B11 came in with a Kd of 11.7 nM.
Same read-out and setting: then B12, with 5.04 nM.
Same read-out and setting: then B13, with 2.89 nM.
Same read-out and setting: then B14, with 11.3 nM.

A further assay has as its target T3, human CD47-Fc. The experiment in a line: BLI (ForteBio), antibody on AHQ tip, human CD47-Fc in solution 100 nM, bivalent.
Turning to B1, the Kd came out at 0.486 nM.
In the case of B15, the Kd turned out to be 0.404 nM.
Same read-out and setting: to B2 belongs 0.849 nM; to B3, 1.35 nM; to B5, 0.451 nM.
For B6, the Kd was 0.71 nM.
With B7, the Kd was determined as 0.403 nM.

The target of the next assay is T1, mouse CD47-Fc. Nature of the assay: BLI (ForteBio), antibody on AHQ tip, mouse CD47-Fc in solution 100 nM, bivalent.
B15 displayed a Kd of 18.7 nM.
As to B16, the Kd is 12.7 nM.

The next assay deals with T4, cynomolgus monkey CD47-Fc (cynomolgus monkey, UniProt A0A2K5X523 19-139).
T4 construct: not shown: Fc part; not described
Nature of the assay: BLI (ForteBio), antibody on AHQ tip, cynomolgus monkey CD47-Fc in solution 100 nM, bivalent.
With B15, the Kd was 0.554 nM.
The same measure, in the same setting: to B6 belongs 0.562 nM.

Another assay concerns the target T2, human CD47 overexpressed on CHO cells. The experiment in a line: flow cytometry competition on CHO-hCD47 cells against 200 nM mouse Fc-labeled SIRPα.
Usually IC50 stands for the concentration at which inhibition is half-maximal. Turning to B1, the concentration for half-maximal inhibition (IC50) stood at 2.69 nM.
Molecule B2 came in with an IC50 of 38.1 nM.
Consider B3, for which the IC50 turned out to be 16.7 nM.
The same measure, in the same setting: to B4 belongs 3.14 nM; to B5, 10.5 nM; to B6, 2.16 nM.
As to B7, the IC50 turned out to be 2.75 nM.
